Paper PMC12733242, “The Functional Role of Gate Loop Residues in Arrestin Binding to GPCRs” (International Journal of Molecular Sciences, 2025)

How the values were obtained:
[1] = target: T1, phosphorylated light-activated bovine rhodopsin (bovine, UniProt P02699 1-348, phosphorylated by endogenous rhodopsin kinase (GRK1), on average 2.6 phosphates per rhodopsin (sites not determined; the C-terminus has seven phosphorylatable serines and threonines); regenerated …); assay: radioligand binding; direct binding assay: 1 nM [14C]leucine-labelled arrestin-1 (50 fmol) from cell-free translation incubated with 0.3 μg of P-Rh* or Rh* (7.8 pmol) in 50 mM Tris-HCl pH 7.4, 100 mM potassium acetate, 1 mM EDTA, 1 mM DTT, 5 min at 37 °C under room light; bound arrestin separated with rhodopsin-containing membranes by gel filtration on Sepharose CL-2B at 4 °C, scintillation counting; binding in …; details: one partner purified
T1 construct: rhodopsin, bovine, wild type, in native disk membranes; Native protein; also called P-Rh*
T1 sequence (P02699 whole entry): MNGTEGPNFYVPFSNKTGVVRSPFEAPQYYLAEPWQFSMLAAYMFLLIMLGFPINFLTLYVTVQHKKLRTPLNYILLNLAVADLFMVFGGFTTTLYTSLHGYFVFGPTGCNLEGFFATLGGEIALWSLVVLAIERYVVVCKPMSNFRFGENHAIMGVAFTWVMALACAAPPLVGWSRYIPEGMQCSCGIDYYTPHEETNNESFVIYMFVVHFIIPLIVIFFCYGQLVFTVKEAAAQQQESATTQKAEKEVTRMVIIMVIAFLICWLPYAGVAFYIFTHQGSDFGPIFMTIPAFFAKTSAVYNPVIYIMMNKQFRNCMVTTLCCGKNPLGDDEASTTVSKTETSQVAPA

[2] = target: T2, unphosphorylated light-activated bovine rhodopsin (bovine, UniProt P02699 1-348, light-activated); assay: as above; details: one partner purified
T2 construct: rhodopsin, bovine, wild type, in native disk membranes; Native protein; source: purified bovine rhodopsin in native disk membranes, unphosphorylated
T2 sequence (P02699 whole entry): as above

B1: bovine arrestin-1 with deletion of Gly292 (natural protein)
chain: MKANKPAPNHVIFKKISRDKSVTIYLGKRDYIDHVERVEPVDGVVLVDPELVKGKRVYVSLTCAFRYGQEDIDVMGLSFRRDLYFSQVQVFPPVGASGATTRLQESLIKKLGANTYPFLLTFPDYLPCSVMLQPAPQDVGKSCGVDFEIKAFATHSTDVEEDKIPKKSSVRLLIRKVQHAPRDMGPQPRAEASWQFFMSDKPLRLAVSLSKEIYYHGEPIPVTVAVTNSTEKTVKKIKVLVEQVTNVVLYSSDYYIKTVAAEEAQEKVPPNSSLTKTLTLVPLLANNRERRIALDGKIKHEDTNLASSTIIKEGIDKTVMGILVSYQIKVKLTVSGLLGELTSSEVATEVPFRLMHPQPEDPDTAKESFQDENFVFEEFARQNLKDAGEYKEEKTDQEAAMDE
modifications: [14C]leucine incorporated
notes: arrestin-1, bovine; bovine residue numbers; source: cell-free translation, radiolabelled; translation mix after centrifugation
increase of binding over WT [1]: 38%
increase of binding over WT [2]: 156%
